# Source: paper PMC7022633, “Gene Cloning, Recombinant Expression, Characterization, and Molecular Modeling of the Glycolytic Enzyme Triosephosphate Isomerase from Fusarium oxysporum” (Microorganisms, 2019)
# Target: recombinant triosephosphate isomerase from Fusarium oxysporum (FoxTPI) (Fusarium oxysporum)
# Assay: SEC; gel filtration on Sephacryl 100 (16/60), 50 mM Tris pH 8.0, 0.5 mL/min; calibrated with Bio-Rad gel filtration standard; single peak at 47 mL, relative MW 56 kDa
substance,measurement,value
recombinant triosephosphate isomerase from Fusarium oxysporum (FoxTPI) (enzyme),stoichiometry N,2
